We go through one substance from US7854918B2, “Composition for medical use having improved water-solubility of peptide and metal-labeling efficiency and preparation for medical use comprising metal-labeled peptide” (Nihon Medi-Physics Co., Ltd., priority 2004, dated 2010).

Data set [1] is described as follows: Elution rate: reverse-phase HPLC peak area of the peptide after vs before 0.22 μm filtration. Type of data set: physicochemical. As for the experimental part:
Peptide 1, Peptide 2, and Peptide 3 (100 μg each) were separately added to 410 mM arginine solutions (pH 11) to adjust each total amount to 700 μL. Molarities in these solutions are 94 μM (Peptide 1), 99 μM (Peptide 2), and 161 μM (Peptide 3). […] Then, 200 μL each of the sample solutions was filtered with a filter Millex (registered trademark)-GV (trade name, manufactured by Nihon Millipore) with a pore size of 0.22 μm. The sample solutions before filtration and the sample solutions after filtration were respectively analyzed by reverse-phase HPLC. Peak area percentages were determined from the peak area values of the peptides before and after filtration and used as elution rates. HPLC analytical conditions are shown below.
For a comparative example, Peptide 1, Peptide 2, and Peptide 3 were separately dissolved in each of water and dimethylsulfoxide (DMSO) to prepare samples having a peptide concentration of 94 μM, 99 μM, or 161 μM, which were studied in the same way as above.
Column: Cosmosil 5C18-AR-300 (Manufactured by Nacalai Tesque, 4.6×150 mm)
(§1) Detection: ultraviolet and visible spectrophotometer (detection wavelength: 220 nm)
HPLC system: Alliance (manufactured by Waters, Japan)
Eluant A: 0.1% trifluoroacetic acid (hereinafter, TFA)/purified water
(§2) Eluant B: 0.1% TFA/acetonitrile
(§3) Concentration gradient: 0 min (Eluant B 20%)→25 min (Eluant B 70%)
Arginine, lysine, and histidine were separately dissolved in water to prepare 410 mM arginine solution, 489 mM lysine solution, and 90 mM histidine solution. An aqueous solution of sodium hydroxide and hydrochloric acid were added to these solutions to adjust the pH of the aqueous solutions of lysine and histidine to 8, 9, 10, and 11, and the pH of the aqueous solution of arginine to 8, 8.5, 9, 9.5, 10, and 11. Subsequently, Peptide 1 was added to these aqueous solutions to prepare 94 μM Peptide 1 solutions. […] Then, 200 μL each of the sample solutions was filtered with a filter Millex (registered trademark)-GV (trade name, manufactured by Nihon Millipore) with a pore size of 0.22 μm. The sample solutions before filtration and the sample solutions after filtration were respectively analyzed by reverse-phase HPLC. Peak area percentages were determined from the peak area values of Peptide 1 before and after filtration and used as elution rates. HPLC analytical conditions were the same as the conditions described in Example 1.
Imidazole was dissolved in water to prepare 1 mM imidazole solution. pH was adjusted to 8, 8.5, and 9 by adding an appropriate amount of hydrochloric acid to this solution. Subsequently, Peptide 1 was added to these imidazole solutions to prepare 94 μM Peptide 1 solutions. […] Then, 200 μL each of the sample solutions was filtered with a filter Millex (registered trademark)-GV (trade name, manufactured by Nihon Millipore) with a pore size of 0.22 μm. The sample solutions before filtration and the sample solutions after filtration were respectively analyzed by reverse-phase HPLC. Peak area percentages were determined from the peak area values of Peptide 1 before and after filtration and used as elution rates. HPLC analytical conditions were the same as the conditions described in Example 1.
Disodium hydrogen phosphate, sodium dihydrogen citrate, sodium ascorbate, and imidazole were separately dissolved in water to prepare their respective aqueous solutions with pH 9 at concentrations described in Table 4. pH adjustment was performed with hydrochloric acid and an aqueous solution of sodium hydroxide. The above-described aqueous solutions were separately added to the weighed Peptide 1 to prepare 94 μM Peptide 1 solutions. […] These Peptide 1 solutions were compared with the Peptide 1 sample solutions using the respective aqueous solutions of disodium hydrogen phosphate, sodium dihydrogen citrate, and sodium ascorbate used as comparative controls. […]

Data set [2] in a line: Tc-99m labeling at room temperature, radiochemical purity by HPLC. Type of data set: physicochemical. As for the experimental part:
Peptide 1 was dissolved in the aqueous solution of arginine with pH 10 obtained in Example 2 to prepare 9.4 μM peptide/arginine solution. 25 μL of a solution of 10 mL of 0.01 M hydrochloric acid supplemented with 5 mg of stannous chloride solution was added to 700 μL of the peptide/arginine solution, and 0.6 to 1.0 GBq of Tc-99m-sodium pertechnetate (hereinafter, 99 mTcO4^−) solution was quickly added thereto to adjust the total amount to 1 mL. After the labeling procedure, the peptide concentration was diluted to 6.6 μM. After shaking for several seconds, the solution was reacted at room temperature. A portion thereof was taken on 10 minutes and 90 minutes after the labeling procedure to determine each Tc-99m labeling rate by HPLC and TLC. The HPLC and TLC analyses were performed under conditions described below.
For comparative controls, Peptide 1 was dissolved in dimethylsulfoxide (DMSO) and then diluted 10-fold with 100 mM phosphate buffer solution (hereinafter, PB) with pH 10 to prepare a peptide/DMSO/PB solution with the final peptide concentration of 9.4 μM. Alternatively, Peptide 1 was dissolved in PB to prepare a peptide/PB solution with the final peptide concentration of 9.4 μM. These solutions were labeled in the same way as in the peptide/arginine solution to determine each Tc-99m labeling rate by HPLC and TLC. After the labeling procedure, the peptide concentration was diluted to 6.6 μM.
Column: Cosmosil 5C18-AR-300 (manufactured by Nacalai Tesque, 4.6×150 mm)
as §1
Radioactivity detector: STEFFI NaI scintillator (manufactured by Raytest)
Eluant A: 0.1% TFA/purified water
as §2, §3

Square brackets hold non-standard residues; d marks the D form. Ends that are not written are not given here. * marks the point of attachment. Nle = CCCC[C@H](N)C(=O)O; For = O=C* Where only a bound is given, the exact number is not on record here.

Regarding “formyl-Nle-Leu-Phe-Nle-Tyr-Lys(NH2)-ε(-Ser-D-Arg-Asp-Cys-Asp-Asp) (For-[Nle]LF[Nle]YKS[dR]DCDD; also: Lys(NH2): Lys α-carboxamide, Ser-D-Arg-Asp-Cys-Asp-Asp branch on Lys ε-amine) [Peptide 1]”, the Elution rate was 64.9% in data set [1] (1 mM imidazole, pH 8, 94 μM peptide); 85.9% in data set [1] (90 mM histidine, pH 9, 94 μM peptide); 90.7% in data set [1] (90 mM histidine, pH 10, 94 μM peptide); 96.7% in data set [1] (90 mM histidine, pH 11, 94 μM peptide); 53.8% in data set [1] (100 mM disodium hydrogen phosphate, pH 9, 94 μM peptide); 100.8% in data set [1] (410 mM arginine solution, pH 11, peptide 94/99/161 μM). Also, the Elution rate in data set [1] (410 mM arginine, pH 8.5, 94 μM peptide) came out at 43.8%; in data set [1] (410 mM arginine, pH 9, 94 μM peptide), 93.8%; in data set [1] (410 mM arginine, pH 9.5, 94 μM peptide) it was 95.4%; in data set [1] (410 mM arginine, pH 10, 94 μM peptide) it was 98.8%; in data set [1] (489 mM lysine, pH 9, 94 μM peptide), 89.0%; in data set [1] (489 mM lysine, pH 10, 94 μM peptide), 83.6%. The Elution rate in data set [1] (489 mM lysine, pH 11, 94 μM peptide) is given as 85.9%; in data set [1] (aqueous solutions of arginine, lysine and histidine at pH 9 or more) it was at least 85%; in data set [1] (solvent DMSO, peptide 94/99/161 μM) it was 98.6%. The “Radiochemical purity (HPLC)” value turned out to be 72.0% in data set [2] (Tc-99m labeling in DMSO/phosphate buffer solution pH 10, room temperature, 10 minutes); 75.4% in data set [2] (Tc-99m labeling in DMSO/phosphate buffer solution pH 10, room temperature, 90 minutes); 55.3% in data set [2] (Tc-99m labeling in phosphate buffer solution pH 10, room temperature, 10 minutes).
